Experiments:
[1] = molecular target: SARS-CoV 스파이크 [change] (#40150-V08B1, Sino Biological) (SARS-CoV, UniProt P59594 14-667); assay: ELISA, coated S1-His
[2] = molecular target: SARS-CoV-2 RBD-hFc (SARS-CoV-2, UniProt P0DTC2 319-541); assay: cell-based or functional assay
[3] = molecular target: SARS-CoV-2 spike protein on live SARS-CoV-2 virus (SARS-CoV-2, UniProt P0DTC2 14-1273); assay: cell-based or functional assay
[4] = molecular target: SARS-CoV RBD-His (#40150-V08B2, Sino Biological) (SARS-CoV, UniProt P59594 306-527); assay: ELISA, coated His-tagged antigen
[5] = molecular target: T1, SARS-CoV-2 스파이크 S1-mFc (SARS-CoV-2, UniProt P0DTC2 16-685); assay: competition ELISA: S1-mFc on coated ACE2-His
T1 construct: range 16-685

[6] = molecular target: T2, SARS-CoV-2 RBD-mFc (SARS-CoV-2, UniProt P0DTC2 319-541); assay: competition ELISA: RBD-mFc on coated ACE2-His
T2 construct: range 319-541

[7] = molecular target: T2, SARS-CoV-2 RBD-mFc; assay: flow cytometry competition: RBD-mFc on HEK293E/ACE2 cells
[8] = molecular target: T2, SARS-CoV-2 RBD-mFc; assay: Octet QKe BLI, 1:1 global fit

| Binder | binding result [1] | IC50, 세포내 유입(internalization) 억제, HEK293E/ACE2-GFP [2] | IC50, live SARS-CoV-2 미세중화분석, Vero 세포 [3] | binding result [4] | IC50 [5] | IC50 [6] | IC50 [7] | Kd [8] | koff [8] | kon [8] |
| --- | --- | --- | --- | --- | --- | --- | --- | --- | --- | --- |
| SA4044 (antibody, V domains shown) VH: EVQLVQSGGGLIQPGGSLRLSCAASGFTVSSNYMSWVRQAPGKGLEWVSVIYSGGSTYYADSVKGRFTISRDNSKNTLHLQMNSLRAEDTAVYYCARDLPQFDGFDYWGQGTLVTVSS VL: QSALTQPPSLSVAPGRTARITCGGNNIGSKSVNWYQHMPGQAPVLVIYSDTDRPSGIPERVSGSKSGNTATLSISRVEAGDEADYYCQVWDSTTDHVVFGGGTKLTVL | no binding (tested: 50 nM) | 39.2 nM | 80.5 nM | no binding | 13.6 nM | 58.3 nM | 2.21 nM |  |  |  |
| SA4053 (antibody, V domains shown) VH: EVQLVQSGGGLVQPGGSLRLSCADSGFTFSSYWMSWVRQVPGKGLEWVANIKQDGSEKYYVDSVKGRFTISRDNAKNSLYLQMNSLRAEDTAVYYCARDVGRGYCSSTSCYRFGGREDFFDYWGQGTLVTVSS VL: QLVLTQPPSVSAAPGQRVTISCSGSFSNVGNNFVSWYRHLPGTAPELLIYDNNQRPSGIPDRFSASKSGTSATLAITGLHTGDEADYYCGTWDTSLSGVVFGGGTKLTVL | no binding (tested: 50 nM) | 62.7 nM | 346 nM | no binding | 22 nM | 40.6 nM | 2.21 nM | 0.689 nM | 0.000218 s⁻¹ | 316000 M⁻¹ s⁻¹ |
| SA4050 (antibody, V domains shown) VH: QVQLVESGAEVKKPGASVKVSCKASGYTFTGYFIHWVRQAPGQGLEWMGWINPNSGGTNYAQKFQGRVTMTRDTSISTAYMELSRLRSDDTAVYYCARVPHLSGYYYEGVLGYFDYWGQGTLVTVSS VL: QSALTQPASVSGSPGQSITISCTGTSIDIGSYNFVSWYQRHPGKAPRLLIYDVSDRPSGVSNRFSGSKSANTASLTISGLQAEDEADYYCSSYTSSSLWVFGGGTKLTVL | no binding (tested: 50 nM) | 36.9 nM | 0.71 nM | no binding | 1.45 nM | 3.14 nM | 2.93 nM | 0.0929 nM | 4.67e-05 s⁻¹ | 503000 M⁻¹ s⁻¹ |
| SA4057 (antibody, V domains shown) VH: EVQLVQSGGGLVQPGGSLRLSCAASVITVSSNYMSWVRQAPGKGLEWVSVIYPGGSTYYADSVKGRFTISRDKSKNTLYLQMNSLRAEDTAVYYCARDLDIVGGMDVWGQGTTVTVSS VL: QLVLTQPPSVSGAPGQRVTISCTGSSSNIGAPHDVHWYQQLPGTAPRLLIYANNNRPSGVPDRFSGSKSGTSASLAITGLQDEDEADYYCQSYDSSLRAYVFGTGTKVTVL | no binding (tested: 50 nM) | 28.1 nM | 37.5 nM | no binding |  | 4.81 nM | 4.13 nM | 0.0284 nM | 4.96e-06 s⁻¹ | 175000 M⁻¹ s⁻¹ |
| SA4043 (antibody, V domains shown) VH: QVQLQESGGGLVQPGGSLRLSCAASVITVSSNYMSWVRQAPGKGLEWVSVIYPGGSTYYADSVKGRFTISRDKSKNTLYLQMNSLRAEDTAVYYCARDLDIVGGMDVWGQGTTVTVSS VL: DIQMTQSPSTLSASVGDRVTITCRASQSISRWLAWYQQKPGQAPKLLIYAASTLQSGVPSRFSGSGSGTEFTLTISSLQPDDFATYYCQQYDSYPRTFGQGTKVDIK | no binding (tested: 50 nM) | 12.8 nM | 12.5 nM | no binding | 1.43 nM | 1.76 nM | 1.69 nM |  |  |  |

Source: KR20220054080A (dated 2022)
